The data set concerns the molecule itself. Nature of the data set: non-reducing SDS-PAGE and immunoblot (dimer/monomer detection); A549 cells untreated or treated with GSNO for 24 h; 100 mM N-ethyl maleimide for 20 min at 37 °C to preserve the Prdx2 redox state; nonreducing lysis buffer (100 mM Tris-HCl pH 6.8, 10% glycerol, 2% SDS) with 100 mM NEM; immunoblot for Prdx2.

The values below come from publication PMC6465399, “S-nitrosylation of the Peroxiredoxin-2 promotes S-nitrosoglutathione-mediated lung cancer cells apoptosis via AMPK-SIRT1 pathway” (Cell Death & Disease, 2019).

B1: Peroxiredoxin-2 (enzyme, human (endogenous in A549), UniProt P32119 1-198, looked up)
chain: MASGNARIGKPAPDFKATAVVDGAFKEVKLSDYKGKYVVLFFYPLDFTFVCPTEIIAFSNRAEDFRKLGCEVLGVSVDSQFTHLAWINTPRKEGGLGPLNIPLLADVTRRLSEDYGVLKTDEGIAYRGLFIIDGKGVLRQITVNDLPVGRSVDEALRLVQAFQYTDEHGEVCPAGWKPGSDTIKPNVDDSKEYFSKHN
notes: Peroxiredoxin-2 (Prdx2), endogenous in human A549 lung cancer cells; three cysteines Cys51, Cys70, Cys172; The dimer seen on the non-reducing gel is the disulfide-linked (Cys51-Cys172) form; also called Prdx2; source: endogenous, A549 cells, in lysate
The term stoichiometry N denotes a count of units in the complex or per binding partner. As for B1, the “stoichiometry N” value was determined as 2.
